For series [1], the target named is T1, SRSF1 RRM1+2 YS (RRM12 YS) (human, UniProt Q07955 1-196, Y37S;Y72S). As to the kind of experiment: ITC; 143 in the reviewer reply; NMR buffer: 50 mM L-Glu, 50 mM L-Arg, 0.05% beta-mercaptoethanol, 20 mM Na2HPO4 pH 7 (RRM1+2: plus 150 mM KCl, 1.5 mM MgCl2, 0.2 mM EDTA); NMR and ITC at 40 C. The note with it: protein: recombinant; tags: GB1, His. A general note: Isothermal titration calorimetry measures the heat released or taken up as one component is titrated into another.

In series [2] the target is T2, SRSF1 RRM1 (YS or WT not stated) (human, UniProt Q07955 1-97). As to the kind of experiment: NMR; NMR buffer: 50 mM L-Glu, 50 mM L-Arg, 0.05% beta-mercaptoethanol, 20 mM Na2HPO4 pH 7 (RRM1+2: plus 150 mM KCl, 1.5 mM MgCl2, 0.2 mM EDTA); NMR and ITC at 40 C. Particulars: protein: recombinant; tags: N-terminal GB1-6xHis.
For the next series, the target named is SRSF1 RRM1 YS (human, UniProt Q07955 1-97, Y37S;Y72S). As to the kind of experiment: ITC; NMR buffer: 50 mM L-Glu, 50 mM L-Arg, 0.05% beta-mercaptoethanol, 20 mM Na2HPO4 pH 7 (RRM1+2: plus 150 mM KCl, 1.5 mM MgCl2, 0.2 mM EDTA); NMR and ITC at 40 C. Particulars: protein: recombinant; tags: N-terminal GB1-6xHis.
In a further series the target is SRSF1 RRM1 WT (human, UniProt Q07955 1-97). As to the kind of experiment: NMR; saturation at 1:1; NMR buffer: 50 mM L-Glu, 50 mM L-Arg, 0.05% beta-mercaptoethanol, 20 mM Na2HPO4 pH 7 (RRM1+2: plus 150 mM KCl, 1.5 mM MgCl2, 0.2 mM EDTA); NMR and ITC at 40 C. Particulars: protein: recombinant; tags: N-terminal GB1-6xHis.
In series [3] the target is T2, SRSF1 RRM1 (YS or WT not stated). The series is described as follows: NMR solution structure; 1:1 complex; NMR buffer: 50 mM L-Glu, 50 mM L-Arg, 0.05% beta-mercaptoethanol, 20 mM Na2HPO4 pH 7 (RRM1+2: plus 150 mM KCl, 1.5 mM MgCl2, 0.2 mM EDTA); NMR and ITC at 40 C. Particulars: protein: recombinant; tags: N-terminal GB1-6xHis.
Series [4] has as its target T1, SRSF1 RRM1+2 YS (RRM12 YS). As to the kind of experiment: ITC; NMR buffer: 50 mM L-Glu, 50 mM L-Arg, 0.05% beta-mercaptoethanol, 20 mM Na2HPO4 pH 7 (RRM1+2: plus 150 mM KCl, 1.5 mM MgCl2, 0.2 mM EDTA); NMR and ITC at 40 C. Particulars: protein: recombinant; tags: GB1, His.
Series [5] deals with T1, SRSF1 RRM1+2 YS (RRM12 YS). As to the kind of experiment: NMR; saturation at 1:1; NMR buffer: 50 mM L-Glu, 50 mM L-Arg, 0.05% beta-mercaptoethanol, 20 mM Na2HPO4 pH 7 (RRM1+2: plus 150 mM KCl, 1.5 mM MgCl2, 0.2 mM EDTA); NMR and ITC at 40 C. Particulars: protein: recombinant; tags: GB1, His.

As usually defined, the Kd is a measure of binding affinity in units of concentration.

Sequence of SRSF1 RRM1 YS (Q07955 1-97 Y37S/Y72S): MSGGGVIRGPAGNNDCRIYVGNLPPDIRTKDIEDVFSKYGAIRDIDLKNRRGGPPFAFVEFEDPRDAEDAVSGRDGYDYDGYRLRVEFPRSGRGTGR
T2 sequence (Q07955 1-97): as the sequence (Q07955 1-97 Y37S/Y72S) above, with S37Y, S72Y counted along it
T1 sequence (Q07955 1-196 Y37S/Y72S): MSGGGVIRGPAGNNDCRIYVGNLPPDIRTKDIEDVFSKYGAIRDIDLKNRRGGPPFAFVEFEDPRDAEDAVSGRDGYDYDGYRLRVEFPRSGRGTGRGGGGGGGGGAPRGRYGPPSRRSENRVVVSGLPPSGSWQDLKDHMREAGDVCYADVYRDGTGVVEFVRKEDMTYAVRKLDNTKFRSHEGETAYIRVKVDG
Sequence of SRSF1 RRM1 WT (Q07955 1-97): as the sequence (Q07955 1-97 Y37S/Y72S) above, with S37Y, S72Y counted along it

As for UGGAUUUUUUUU (ssRNA), the Kd in series [1] is 0.145 µM. UUUUUU (ssRNA) [polyU (NMR, length not stated)]: the binding result in series [2] is “no binding”. Turning to UUUAGA (ssRNA) [SMN2 exon7 ESE1 counterpart], in series [2], the binding result is “no binding”.

Turning to UUCAGA (ssRNA) [SMN1 exon7 ESE1], in series [2], the binding result is reported as “binds”. Consider AACAAA (ssRNA) [AACAAA RNA], for which the dissociation constant (Kd) with SRSF1 RRM1 YS turned out to be 21 µM. The binding result (with SRSF1 RRM1 WT; in series [3]) was “binds” throughout. As to UUUUUU (ssRNA) [UUUUUU RNA (polyU)], in the series with SRSF1 RRM1 YS, the binding result is reported as “no binding”. In the case of UGGAUUUUUCAU (ssRNA), the dissociation constant (Kd) in series [4] was determined as 0.055 µM.

Take UCAUUGGAUUUUUCAU (ssRNA): in series [5], the binding result is given as “binds”. As to GGGGGG (ssRNA) [polyG (NMR, length not stated)], in series [2], the binding result was “no binding”.

CCCCCC (ssRNA) [CCCCCC RNA (polyC)]: in the series with SRSF1 RRM1 YS, the Kd stood at 11 µM. As for AAAAAA (ssRNA) [polyA (NMR, length not stated)], in series [2], the binding result was “no binding”. In the case of CCCCCC (ssRNA) [polyC (NMR, length not stated)], the binding result in series [2] is listed as “binds”. Take UUUUUGGAU (ssRNA): the Kd in series [4] was 0.164 µM.

For the molecule AACGAA (ssRNA) [AACGAA RNA], in the series with SRSF1 RRM1 YS, the dissociation constant Kd was found to be 25 µM. Further, in series [2], the binding result is “binds”.

The record behind these values is publication PMC7813835, “Structure of SRSF1 RRM1 bound to RNA reveals an unexpected bimodal mode of interaction and explains its involvement in SMN1 exon7 splicing”.
